In US20180215833A1 (published 2018):
Each block holds one binder with its values, some of them ahead of it.

Legend:
[1] = target: human c-Met on cells (MKN-45, A549, HPAF, BxPC3, NCI-H441) (human, UniProt P08581 25-1390); assay: cell-based or functional assay
[2] = target: T1, llama c-Met ECD (aa 25-932), His tag (Llama glama); assay: ELISA, 200 ng immobilised c-Met protein
T1 construct: also called Llama glama c-Met
T1 chain: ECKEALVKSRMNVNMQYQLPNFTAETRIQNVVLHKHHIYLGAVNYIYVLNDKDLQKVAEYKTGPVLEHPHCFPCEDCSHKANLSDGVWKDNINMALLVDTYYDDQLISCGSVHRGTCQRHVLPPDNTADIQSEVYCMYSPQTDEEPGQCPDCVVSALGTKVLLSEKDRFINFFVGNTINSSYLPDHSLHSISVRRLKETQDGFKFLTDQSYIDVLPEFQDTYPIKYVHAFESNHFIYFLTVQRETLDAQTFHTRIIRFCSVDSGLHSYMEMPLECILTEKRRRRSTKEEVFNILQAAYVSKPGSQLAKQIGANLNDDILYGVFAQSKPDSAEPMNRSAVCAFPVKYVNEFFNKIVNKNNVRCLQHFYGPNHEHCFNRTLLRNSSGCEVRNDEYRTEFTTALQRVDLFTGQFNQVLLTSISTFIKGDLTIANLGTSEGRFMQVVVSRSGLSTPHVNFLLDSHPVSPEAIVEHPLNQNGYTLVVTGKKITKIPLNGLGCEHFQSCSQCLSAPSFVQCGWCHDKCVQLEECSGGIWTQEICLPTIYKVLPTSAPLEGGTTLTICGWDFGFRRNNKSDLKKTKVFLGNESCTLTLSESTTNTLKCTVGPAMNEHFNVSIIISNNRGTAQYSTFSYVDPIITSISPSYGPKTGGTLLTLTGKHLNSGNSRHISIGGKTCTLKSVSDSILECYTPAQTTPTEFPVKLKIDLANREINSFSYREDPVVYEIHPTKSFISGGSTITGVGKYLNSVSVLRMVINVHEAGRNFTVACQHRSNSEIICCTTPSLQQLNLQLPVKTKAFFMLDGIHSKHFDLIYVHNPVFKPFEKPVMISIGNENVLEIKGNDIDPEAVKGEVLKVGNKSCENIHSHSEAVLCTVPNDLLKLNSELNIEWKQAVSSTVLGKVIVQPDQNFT

[3] = target: LS2 (aa1-199) (Llama glama; human) (UniProt P08581); assay: ELISA, mAb immobilised, c-Met chimera titrated (EC50 of the chimera)
[4] = target: LS3 (aa1-287) (Llama glama; human) (UniProt P08581); assay: as above
[5] = target: LS4 (aa1-348) (Llama glama; human) (UniProt P08581); assay: as above
[6] = target: LS5 (aa1-448) (Llama glama; human) (UniProt P08581); assay: as above
[7] = target: Ll10 (aa608-909) (human; Llama glama); assay: as above
[8] = target: Ll11 (aa634-909) (human; Llama glama); assay: as above
[9] = target: Ll8 (aa540-909) (human; Llama glama); assay: as above
[10] = target: Ll9 (aa572-909) (human; Llama glama); assay: as above

human c-Met on cells (MKN-45, A549, HPAF, BxPC3, NCI-H441), sequence (P08581 25-1390): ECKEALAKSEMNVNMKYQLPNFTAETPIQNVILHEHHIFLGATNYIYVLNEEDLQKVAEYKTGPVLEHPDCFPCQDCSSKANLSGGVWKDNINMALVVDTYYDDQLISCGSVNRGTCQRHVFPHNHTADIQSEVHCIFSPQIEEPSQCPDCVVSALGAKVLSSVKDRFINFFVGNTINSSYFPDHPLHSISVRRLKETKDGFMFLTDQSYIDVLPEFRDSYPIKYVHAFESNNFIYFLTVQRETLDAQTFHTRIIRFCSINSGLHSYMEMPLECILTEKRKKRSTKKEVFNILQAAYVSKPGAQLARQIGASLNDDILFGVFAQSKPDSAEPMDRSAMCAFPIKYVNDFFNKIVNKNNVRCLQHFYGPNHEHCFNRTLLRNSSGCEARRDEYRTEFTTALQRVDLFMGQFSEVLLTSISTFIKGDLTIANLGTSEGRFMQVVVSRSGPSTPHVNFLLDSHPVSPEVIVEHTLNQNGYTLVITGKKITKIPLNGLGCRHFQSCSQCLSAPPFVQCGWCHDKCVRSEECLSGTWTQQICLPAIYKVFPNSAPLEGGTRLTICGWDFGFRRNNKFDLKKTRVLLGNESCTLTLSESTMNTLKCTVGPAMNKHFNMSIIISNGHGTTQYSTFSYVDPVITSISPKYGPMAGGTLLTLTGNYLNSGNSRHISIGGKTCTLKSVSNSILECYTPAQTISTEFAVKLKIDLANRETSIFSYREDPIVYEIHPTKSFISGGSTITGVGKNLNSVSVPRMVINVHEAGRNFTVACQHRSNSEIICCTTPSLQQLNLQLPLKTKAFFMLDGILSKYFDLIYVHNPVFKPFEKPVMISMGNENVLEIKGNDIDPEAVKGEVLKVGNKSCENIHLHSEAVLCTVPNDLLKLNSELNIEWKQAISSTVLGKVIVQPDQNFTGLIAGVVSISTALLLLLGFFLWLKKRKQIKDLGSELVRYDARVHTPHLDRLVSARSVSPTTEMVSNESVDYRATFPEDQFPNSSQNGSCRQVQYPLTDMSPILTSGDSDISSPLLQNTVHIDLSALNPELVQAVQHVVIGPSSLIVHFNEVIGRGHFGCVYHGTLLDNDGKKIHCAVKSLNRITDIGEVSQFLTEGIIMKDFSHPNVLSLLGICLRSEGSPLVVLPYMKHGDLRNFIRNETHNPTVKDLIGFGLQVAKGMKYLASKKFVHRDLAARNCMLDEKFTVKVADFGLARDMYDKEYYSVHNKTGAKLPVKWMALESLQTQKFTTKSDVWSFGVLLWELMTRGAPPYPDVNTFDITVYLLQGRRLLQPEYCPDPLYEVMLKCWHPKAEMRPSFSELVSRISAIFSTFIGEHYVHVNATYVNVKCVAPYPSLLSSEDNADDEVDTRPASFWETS

B4: Potelligent 36C4 (antibody, V domains shown)
VH: QVQLVESGPGLVKPSQTLSLTCAVSGGSITTNYYYWSWIRQSPGKGLEWMGVIAYDGSTDYSPSLKSRTSISRDTSKNQFSLQLSSVTPEDTAVYYCARDVRVIATGWATANALDAWGQGTLVTVSS
VL: QSVLTQPPSVSGSPGKTVTISCAGTSSDVGYGNYVSWYQQLPGTAPKLLIFAVSYRASGIPDRFSGSKSGNTAFLTISGLQSEDEADYYCASYRSSNNAAVFGGGTHLTVL
modifications: defucosylated (produced in Potelligent CHO cells)
ADCC, 51Cr release assay on NCI-H441 cells, EC50 [1]: 0.04 µg/mL
ADCC, 51Cr release, lysis of NCI-H441 cells, IC50 [1]: 0.00013 µg/mL

B5: 36C4E (antibody, V domains shown)
VH: QVQLVESGPGLVKPSQTLSLTCAVSGGSITTNYYYWSWIRQSPGKGLEWMGVIAYDGSTDYSPSLKSRTSISRDTSKNQFSLQLSSVTPEDTAVYYCARDVRVIATGWATANALDAWGQGTLVTVSS
VL: QSVLTQPPSVSGSPGKTVTISCAGTSSDVGYGNYVSWYQQLPGTAPKLLIFAVSYRASGIPDRFSGSKSGNTAFLTISGLQSEDEADYYCASYRSSNNAAVFGGGTHLTVL
ADCC, 51Cr release assay on NCI-H441 cells, EC50 [1]: 0.26 µg/mL

B6: 38H10 (antibody, V domains shown)
VH: EVQLVQPGVELRNPGASVKVSCKASGYIFTMNSIDWVRQAPGQGLEWMGRIDPEDGGTKYAQKFQGRVTFTADTSTSTAYVELNSLRSEDTAVYYCARVDDYYLGYDYWGQGTQVTVSS
VL: EIVMTQSPSSVTASAGEKVTINCKSSQSVLWRSNQKNYLAWYQQRLGQSPRLLISWASIRESGVPDRFSGSGSTTDFTLTISSFQPEDAAVYYCQQGYSFPYTFGSGTRLEIK
antibody-induced proliferation of BxPC3 cells, percentage of the proliferation obtained with 75 ng/ml HGF [1]: < 20%

The next lines start with the values.

ADCC, specific lysis of MKN-45 cells, EC50 [1]: 0.0028 µg/mL
B1: chimeric 224G11 (antibody, human IgG1, V domains shown)
VH: EVQLQQSGPELVKPGASVKISCKTSGYIFTAYTMHWVRQSLGESLDWIGGIKPNNGLANYNQKFKGKATLTVDKSSSTAYMDLRSLTSEDSAVYYCARSEITTEFDYWGQGTALTVSS
VL: DIVLTQSPASLAVSLGQRATISCRASESVDSYANSFMHWYQQKPGQPPKLLIYRASNLESGIPARFSGSGSRTDFTLTINPVEADDVATYYCQQSKEDPLTFGSGTKLEMK

binding result [2]: no binding
B2: 13E6 (antibody, V domains shown)
VH: QVQLQESGGDLVQPGGSLRLSCAASGFTFDDYVMNWVRQAPGKGLEWISAINWNGGSTYYAESMKGRFTISRDNAKNTLYLQMYSLQSDDTAVYYCVKDTVVSGNGYWGQGTQVTVSS
VL: QSVLTQPPSVSGTLGKTVTISCAGTSSDIGDYNYVSWYQQLPGTAPKLLIYDVNKRASGIPDRFSGSKSGNTASLSISGLQSEDEADYYCASYRSRNDYAFGGGTKLTVL
notes: also called mAb 13E6

ADCC, specific lysis of MKN-45 cells, EC50 [1]: 0.0046 µg/mL
antibody-induced proliferation of BxPC3 cells, percentage of the proliferation obtained with 75 ng/ml HGF [1]: < 20%
B3: 40B8 (antibody, V domains shown)
VH: EVQLVQPGAELRNPGASVKVSCKASGYTFTNYVIDWVRQAPGQGLEWMGRIDPENGGTRYAQKFQGRVTFTADTSTSTAYVELSNLRSEDTAVYYCARLEDYELAYDYWGQGTQVTVSS
VL: DIVMTQTPSSVTASAGEKVTINCKSSQSVLLSSNQKNYLAWYQQRLGQSPRLLIYWASTRESGVPDRFSGSGSTTDFTLTISSFQPEDAAVYYCQQGVSFPLTFGQGTKVELK

ADCC, specific lysis of MKN-45 cells, EC50 [1]: 0.0043 µg/mL
EC50 [3]: 0.034 µg/mL
EC50 [4]: 0.05 µg/mL
EC50 [5]: 0.07 µg/mL
EC50 [6]: 0.05 µg/mL
EC50 [7]: > 0.04 µg/mL
EC50 [8]: 0.042 µg/mL
EC50 [9]: > 0.04 µg/mL
EC50 [10]: > 0.04 µg/mL
B7: 48A2 (antibody, V domains shown)
VH: EVQLVQPGVELRNPGASVKVSCKASGYIFTMNSIDWVRQAPGQGLEWMGRIDPEDGGTKYAQKFQGRVTFTADTSTSTAYVELNSLRSEDTAVYYCARVDDYYLGYDYWGQGTQVTVSS
VL: DIVMTQTPTSVTASAGDKVTINCKSSQSVLFSSNQKNYLAWYQQRLGQSPRLLIYWASIRESGVPDRFSGSGSATDFTLTISNFQPEDAAVYYCQQGYSFPYSFGSGTRLEIR
